In assay [1] the target is hepatitis B surface antigen (HBsAg), purified from human plasma (hepatitis B virus). The assay can be described thus: indirect competition ELISA on HBsAg-coated wells; highest attainable concentration of unlabeled Fab; competitor: HBV#8 IgG. (In an ELISA, binding on a coated surface is turned into a signal by an enzyme label.)
Assay [2] has the same target. The assay can be described thus: competition inhibition ELISA: free HBsAg against HBsAg-coated wells; I50 of antigen multiplied by 100.
For assay [3] the target is unchanged. Briefly: indirect competition ELISA on HBsAg-coated wells; highest attainable concentration of unlabeled Fab; competitor: biotinylated HBV#8 Fab.
For assay [4] the target is unchanged. The assay can be described thus: competition inhibition ELISA; Kd of the IgG against Kd of the Fab.

hepatitis B surface antigen (HBsAg), purified from human plasma (hepatitis B virus), sequence (P03141 175-400): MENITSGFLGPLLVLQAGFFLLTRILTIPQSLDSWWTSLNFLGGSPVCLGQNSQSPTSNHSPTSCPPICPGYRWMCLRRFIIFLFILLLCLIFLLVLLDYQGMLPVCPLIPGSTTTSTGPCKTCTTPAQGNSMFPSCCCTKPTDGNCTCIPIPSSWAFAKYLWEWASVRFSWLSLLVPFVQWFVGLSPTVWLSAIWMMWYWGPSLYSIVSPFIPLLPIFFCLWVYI

B1: HBV#8 Fab (Fab, V domains shown)
VH: EVQLLESGPGLVKPSQTLSLTCAVSGAFMTSDYLYWSWLRQPPGKGPEWIGGIYTTGRSHYNPSLRGRATLSVDTSKNQFSLELNSVTAADTAVYYCARGQYHNWGPSLFDYYNYYYMDVWGKGTTVTVSS
VL: AAELTQSPSSLSASVGDRVTITCRASQDISNYLAWYQQKPGKAPKLLIYSASRLQSGVPSRFSGSGSGTDYTLTLSSLHPEDSATYYCHQYHSAPWTFGQGTKVEIKR
As a reminder, the Kd is the free concentration of one partner at which half of the binding sites on the other are occupied at equilibrium, for simple one-to-one binding. As to B1, the figures for the percent inhibition of binding in assay [1] and in assay [3] were 57% and 66%, respectively. For the same molecule, the Kd in assay [2] turned out to be 1900 nM.

B2: HBV#8 IgG (antibody, V domains shown)
VH: B1 VH
VL: B1 VL
Molecule B2 had a dissociation constant Kd in assay [2] of 25 nM. The molecule further displayed a fold improvement of affinity (IgG against Fab) in assay [4] of 75 fold.

The values above are taken from patent publication US20110097270A1.
